Experimental data reported in PMC9972897 (Science immunology, 2023).

What was measured:
[1] = molecular target: SARS-CoV-2 S Omicron BA.1, C-terminally truncated, expressed on 293T cells (SARS-CoV-2, Omicron BA.1 (B.1.1.529), strain); assay: flow cytometry on cells; details: one partner purified
[2] = molecular target: SARS-CoV-2 S Omicron BA.4/BA.5, C-terminally truncated, expressed on 293T cells (SARS-CoV-2, Omicron BA.4/BA.5, strain); assay: flow cytometry on cells; details: one partner purified
[3] = molecular target: SD1-RBD of SARS-CoV-2 S, Omicron BA.1 (SARS-CoV-2, Omicron BA.1 (B.1.1.529), strain); assay: ELISA; details: both partners purified
[4] = molecular target: SD1-RBD of SARS-CoV-2 S, Omicron BA.2 (SARS-CoV-2, Omicron BA.2, strain); assay: ELISA; details: both partners purified
[5] = molecular target: SD1-RBD of SARS-CoV-2 S, Beta (SARS-CoV-2, Beta (B.1.351), strain); assay: ELISA; details: both partners purified
[6] = molecular target: SD1-RBD of SARS-CoV-2 S, Delta (SARS-CoV-2, Delta (B.1.617.2), strain); assay: ELISA; details: both partners purified
[7] = molecular target: SD1-RBD of SARS-CoV-2 S, Omicron BA.2.75 (SARS-CoV-2 Omicron BA.2.75 (GenBank …, strain)); assay: ELISA; details: both partners purified
[8] = molecular target: SD1-RBD of SARS-CoV-2 S, Omicron BA.4/BA.5 (SARS-CoV-2 Omicron BA.4/BA.5 (GenBank …, strain)); assay: ELISA; details: both partners purified
[9] = molecular target: SD1-RBD of SARS-CoV-2 S, Alpha (SARS-CoV-2, Alpha (B.1.1.7), strain); assay: ELISA; details: both partners purified
[10] = molecular target: SD1-RBD of SARS-CoV-2 S, Gamma (SARS-CoV-2, Gamma (B.1.1.28.1), strain); assay: ELISA; details: both partners purified
[11] = molecular target: SARS-CoV-2 S-2P ectodomain trimer (ancestral) (SARS-CoV-2 (ancestral, MN908947), stabilised); assay: SPR; details: both partners purified

B1: hr2.016 monoclonal antibody (IgG) (antibody, V domains shown)
VH: EVQLLESGGGLVQPGGSLRLSCAASGFMFSKYAMTWVRQTPGKGLEWVSVISGGGGSTYYADSVKGRFTISRDNSKNTLYLQMNSLRAEDTAVYYCAKLLVVFVIDYWGQGALVTVSS
VL: EIVLTQSPGTLSLSPGERATLFCRASQSVSSNLAWYQQKPGRAPRLLISGASSRATGIPDRFSGSGSGTDFTLTISRLEPEDFAVYYCQQYGSSPPTFGQGTKVEIK
With B1 the “fold increase of binding (gMFI) with soluble ACE2” value (shortened to “fold increase of binding (gMFI)”) [1] was 4.9 fold and the “fold increase of binding (gMFI)” value [2] was 4.6 fold.

B2: hr2.023 monoclonal antibody (IgG) (antibody, V domains shown)
VH: QVQLVQSGAEVKKPGASVKVSCRASENIFSDSYLHWVRQAPGQGLEWMGIITPSGDKTFYAQQFQGRLTMTRDTPTNTLHMDLRGLTSADTAIYYCARQATKGGWDYWGQGTLVTVSS
VL: EIVLTQSPGTLSLSPGESATLSCRASQSVTRNYLAWYQQQPGQAPRLLIYGASNRATGVPDRFSGSGSGTDFTLTISRLEPEDFAVYYCQQYGSSPPTFIFGPGTKVDIK
B2 was tested, and the “fold increase of binding (gMFI)” value [1] was 5.8 fold and the “fold increase of binding (gMFI)” value [2] was 5.3 fold.

B3: sd1.040 monoclonal antibody (IgG) (antibody, V domains shown)
VH: QVQLVQSGAEVKKPGASVKVSCKASGYTFTSFYIHWVRQAPGQGLEWMGIIDPSGGSTSYPQKFQGRVTMTRDTSTSTVYMDLSSLRSEDTAVYYCTRDGSAGDNSWFDPWGQGTLVTVSS
VL: not shown
B3: binds [3]; binds [4]; binds [5]. B3: binds [6]; binds [7]; binds [8]. B3: binds [9]; binds [10].

B4: sd1.040 Fab (Fab, V domains shown)
VH: B3 VH
VL: not shown
Work on B4 yielded a Kd [11] of 0.2 nM.

B5: fp.006 monoclonal antibody (IgG) (antibody, V domains shown)
VH: EVQLVESGGGVVQPGGSLRLSCAASGFNFNNYALHWVRQAPGKGLEWVAIISYEARNKKYGVSVMGRFSISRDNSKSIMYLEMNSLRVEDTGVYYCARDLFLSDYDRSGYDPTRGGFDHWGQGTLVTVSS
VL: EIVMTQSPATLSVSPGERATLSCRASQSVSSSLAWYQHRFGQAPRLLISGASTRATGIPGRFSGSGSGTEFTLTISSLQSEDVAVYYCQQYGDWPLVTFGGGTKVEIK
With B5 the “fold increase of binding (gMFI)” value [1] was 5.3 fold and the “fold increase of binding (gMFI)” value [2] was 8.2 fold.
